Experimental data taken from patent US20230250154A1 (CYTONICS, published 2023).

T1: ADAMTS4 (human, UniProt O75173 213-685, limits assumed)
T1 sequence (looked up): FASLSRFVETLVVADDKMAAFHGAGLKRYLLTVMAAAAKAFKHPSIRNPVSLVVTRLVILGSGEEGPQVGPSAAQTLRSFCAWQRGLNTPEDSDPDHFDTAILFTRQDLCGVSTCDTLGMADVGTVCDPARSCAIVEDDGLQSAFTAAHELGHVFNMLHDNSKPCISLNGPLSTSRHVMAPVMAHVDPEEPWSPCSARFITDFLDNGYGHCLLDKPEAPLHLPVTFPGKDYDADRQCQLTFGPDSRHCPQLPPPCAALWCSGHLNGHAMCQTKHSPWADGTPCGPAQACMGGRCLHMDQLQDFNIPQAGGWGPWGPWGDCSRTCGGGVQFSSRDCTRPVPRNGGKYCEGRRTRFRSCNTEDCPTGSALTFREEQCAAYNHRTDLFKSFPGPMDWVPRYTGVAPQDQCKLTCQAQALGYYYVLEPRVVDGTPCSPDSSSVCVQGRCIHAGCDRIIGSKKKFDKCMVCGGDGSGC

T2: ADAMTS5 (human, UniProt Q9UNA0 262-622, limits assumed)
T2 sequence (looked up): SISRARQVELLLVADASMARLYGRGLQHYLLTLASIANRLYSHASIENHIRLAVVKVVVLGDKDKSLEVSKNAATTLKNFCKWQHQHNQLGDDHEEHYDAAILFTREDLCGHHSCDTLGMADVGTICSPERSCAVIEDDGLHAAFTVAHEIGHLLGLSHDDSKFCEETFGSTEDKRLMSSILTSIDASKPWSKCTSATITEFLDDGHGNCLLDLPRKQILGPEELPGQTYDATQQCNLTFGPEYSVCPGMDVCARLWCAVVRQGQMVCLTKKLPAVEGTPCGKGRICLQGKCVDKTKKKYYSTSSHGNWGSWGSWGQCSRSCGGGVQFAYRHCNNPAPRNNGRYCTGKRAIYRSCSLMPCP


What was measured:
Assay in all cases: cell-based or functional assay
ADAMTS4 = molecular target: T1, ADAMTS4
ADAMTS5 = molecular target: T2, ADAMTS5
MMP13 = MMP13 (human, UniProt P45452 104-471, limits assumed)

Protease Inhibition (% of WT) (ADAMTS4)	Protease Inhibition (% of WT) (ADAMTS5)	Protease Inhibition (% of WT) (MMP13)	Binder
27 % of WT	66 % of WT	119 % of WT	Variant A2M, bait region SEQ ID NO 93 (other) SVSGKPQYMVLVPSLLHTETTEKGCVLLSYLNETVTVSASLESVRGNRSLFTDLEAENDVLHCVAFAVPKSSSNEEVMFLTVQVKGPTQEFKKRTTVMVKNEDSLVFVQTDKSIYKPGQTVKFRVVSMDENFHPLNELIPLVYIQDPKGNRIAQWQSFQLEGGLKQFSFPLSSEPFQGSYKVVVQKKSGGRTEHPFTVEEFVLPKFEVQVTVPKIITILEEEMNVSVCGLYTYGKPVPGHVTVSICRKYSDASDCHGEDSQAFCEKFSGQLNSHGCFYQQVKTKVFQLKRKEYEMKLHTEAQIQEEGTVVELTGRQSSEITRTITKLSFVKVDSHFRQGIPFFGQVRLVDGKGVPIPNKVIFIRGNEANYYSNATTDEHGLVQFSINTTNVMGTSLTVRVNYKDRSPCYGYQWVSEEHEEAHHTAYLVFSPSKSFVHLEPMSHELPCGHTQTVQAHYILNGGTLLGLKKLSFYYLIMAKGGIVRTGTHGLLVKQEDMKGHFSISIPVKSDIAPVARLLIYAVLPTGDVIGDSAKYDVENCLANKVDLSFSPSQSLPASHAHLRVTAAPQSVCALRAVDQSVLLMKPDAELSASSVYNLLPEKDLTGFPGPLNDQDDEDCINRHNVYINGITYTPVSSTNEKDMYSFLEDMGLKAFTNSKIRKPKMCPQLEQYEMHGPEGLRVGVSQELGQRFYESDVMGRGHARLVHVEEPHTKLLRKYFPETWIWDLVVVNSAGVAEVGVTVPDTITEWKAGAFCLSEDAGLGISSTASLRAFQPFFVELTMPYSVIRGEAFTLKATVLNYLPKCIRVSVQLEASPAFLAVPVEKEQAPHCICANGRQTVSWAVTPKSLGNVNFTVSAEALESQELCGTEVPSVPEHGRKDTVIKPLLVEPEGLEKETTFNSLLCPSGGEVSEELSLKLPPNVVEESARASVSVLGDILGSAMQNTQNLLQMPYGCGEQNMVLFAPNIYVLDYLNETQQLTPEIKSKAIGYLNTGYQRQLNYKHYDGSYSTFGERYGRNQGNTWLTAFVLKTFAQARAYIFIDEAHITQALIWLSQRQKDNGCFRSSGSLLNNAIKGGVEDEVTLSAYITIALLEIPLTVTHPVVRNALFCLESAWKTAQEGDHGSHVYTKALLAYAFALAGNQDKRKEVLKSLNEEAVKKDNSVHWERPQKPKAPVGHFYEPQAPSAEVEMTSYVLLAYLTAQPAPTSEDLTSATNIVKWITKQQNAQGGFSSTQDTVVALHALSKYGAATFTRTGKAAQVTIQSSGTFSSKFQVDNNNRLLLQQVSLPELPGEYSMKVTGEGCVYLQTSLKYNILPEKEEFPFALGVQTLPQTCDEPKAHTSFQISLSVSYTGSRSASNMAIVDVKMVSGFIPLKPTVKMLERSNHVSRTEVSSNHVLIYLDKVSNQTLSLFFTVLQDVPVRDLKPAIVKVYDYYETDEFAIAEYNAPCSKDLGNADYKDDDDKGASHHHHHH
121 % of WT	395 % of WT	173 % of WT	Variant A2M, bait region SEQ ID NO 94 (other) SVSGKPQYMVLVPSLLHTETTEKGCVLLSYLNETVTVSASLESVRGNRSLFTDLEAENDVLHCVAFAVPKSSSNEEVMFLTVQVKGPTQEFKKRTTVMVKNEDSLVFVQTDKSIYKPGQTVKFRVVSMDENFHPLNELIPLVYIQDPKGNRIAQWQSFQLEGGLKQFSFPLSSEPFQGSYKVVVQKKSGGRTEHPFTVEEFVLPKFEVQVTVPKIITILEEEMNVSVCGLYTYGKPVPGHVTVSICRKYSDASDCHGEDSQAFCEKFSGQLNSHGCFYQQVKTKVFQLKRKEYEMKLHTEAQIQEEGTVVELTGRQSSEITRTITKLSFVKVDSHFRQGIPFFGQVRLVDGKGVPIPNKVIFIRGNEANYYSNATTDEHGLVQFSINTTNVMGTSLTVRVNYKDRSPCYGYQWVSEEHEEAHHTAYLVFSPSKSFVHLEPMSHELPCGHTQTVQAHYILNGGTLLGLKKLSFYYLIMAKGGIVRTGTHGLLVKQEDMKGHFSISIPVKSDIAPVARLLIYAVLPTGDVIGDSAKYDVENCLANKVDLSFSPSQSLPASHAHLRVTAAPQSVCALRAVDQSVLLMKPDAELSASSVYNLLPEKDLTGFPGPLNDQDDEDCINRHNVYINGITYTPVSSTNEKDMYSFLEDMGLKAFTNSKIRKPKMCPQLEQYEMHGPEGLRVGTEGEARGSFYESDVMGRGHARLVHVEEPHTKLLRKYFPETWIWDLVVVNSAGVAEVGVTVPDTITEWKAGAFCLSEDAGLGISSTASLRAFQPFFVELTMPYSVIRGEAFTLKATVLNYLPKCIRVSVQLEASPAFLAVPVEKEQAPHCICANGRQTVSWAVTPKSLGNVNFTVSAEALESQELCGTEVPSVPEHGRKDTVIKPLLVEPEGLEKETTFNSLLCPSGGEVSEELSLKLPPNVVEESARASVSVLGDILGSAMQNTQNLLQMPYGCGEQNMVLFAPNIYVLDYLNETQQLTPEIKSKAIGYLNTGYQRQLNYKHYDGSYSTFGERYGRNQGNTWLTAFVLKTFAQARAYIFIDEAHITQALIWLSQRQKDNGCFRSSGSLLNNAIKGGVEDEVTLSAYITIALLEIPLTVTHPVVRNALFCLESAWKTAQEGDHGSHVYTKALLAYAFALAGNQDKRKEVLKSLNEEAVKKDNSVHWERPQKPKAPVGHFYEPQAPSAEVEMTSYVLLAYLTAQPAPTSEDLTSATNIVKWITKQQNAQGGFSSTQDTVVALHALSKYGAATFTRTGKAAQVTIQSSGTFSSKFQVDNNNRLLLQQVSLPELPGEYSMKVTGEGCVYLQTSLKYNILPEKEEFPFALGVQTLPQTCDEPKAHTSFQISLSVSYTGSRSASNMAIVDVKMVSGFIPLKPTVKMLERSNHVSRTEVSSNHVLIYLDKVSNQTLSLFFTVLQDVPVRDLKPAIVKVYDYYETDEFAIAEYNAPCSKDLGNADYKDDDDKGASHHHHHH
153 % of WT	272 % of WT	79 % of WT	Variant A2M, bait region SEQ ID NO 95 (other) SVSGKPQYMVLVPSLLHTETTEKGCVLLSYLNETVTVSASLESVRGNRSLFTDLEAENDVLHCVAFAVPKSSSNEEVMFLTVQVKGPTQEFKKRTTVMVKNEDSLVFVQTDKSIYKPGQTVKFRVVSMDENFHPLNELIPLVYIQDPKGNRIAQWQSFQLEGGLKQFSFPLSSEPFQGSYKVVVQKKSGGRTEHPFTVEEFVLPKFEVQVTVPKIITILEEEMNVSVCGLYTYGKPVPGHVTVSICRKYSDASDCHGEDSQAFCEKFSGQLNSHGCFYQQVKTKVFQLKRKEYEMKLHTEAQIQEEGTVVELTGRQSSEITRTITKLSFVKVDSHFRQGIPFFGQVRLVDGKGVPIPNKVIFIRGNEANYYSNATTDEHGLVQFSINTTNVMGTSLTVRVNYKDRSPCYGYQWVSEEHEEAHHTAYLVFSPSKSFVHLEPMSHELPCGHTQTVQAHYILNGGTLLGLKKLSFYYLIMAKGGIVRTGTHGLLVKQEDMKGHFSISIPVKSDIAPVARLLIYAVLPTGDVIGDSAKYDVENCLANKVDLSFSPSQSLPASHAHLRVTAAPQSVCALRAVDQSVLLMKPDAELSASSVYNLLPEKDLTGFPGPLNDQDDEDCINRHNVYINGITYTPVSSTNEKDMYSFLEDMGLKAFTNSKIRKPKMCPQLEQYEMHGPEGLRVGTSEDLVVQFYESDVMGRGHARLVHVEEPHTKLLRKYFPETWIWDLVVVNSAGVAEVGVTVPDTITEWKAGAFCLSEDAGLGISSTASLRAFQPFFVELTMPYSVIRGEAFTLKATVLNYLPKCIRVSVQLEASPAFLAVPVEKEQAPHCICANGRQTVSWAVTPKSLGNVNFTVSAEALESQELCGTEVPSVPEHGRKDTVIKPLLVEPEGLEKETTFNSLLCPSGGEVSEELSLKLPPNVVEESARASVSVLGDILGSAMQNTQNLLQMPYGCGEQNMVLFAPNIYVLDYLNETQQLTPEIKSKAIGYLNTGYQRQLNYKHYDGSYSTFGERYGRNQGNTWLTAFVLKTFAQARAYIFIDEAHITQALIWLSQRQKDNGCFRSSGSLLNNAIKGGVEDEVTLSAYITIALLEIPLTVTHPVVRNALFCLESAWKTAQEGDHGSHVYTKALLAYAFALAGNQDKRKEVLKSLNEEAVKKDNSVHWERPQKPKAPVGHFYEPQAPSAEVEMTSYVLLAYLTAQPAPTSEDLTSATNIVKWITKQQNAQGGFSSTQDTVVALHALSKYGAATFTRTGKAAQVTIQSSGTFSSKFQVDNNNRLLLQQVSLPELPGEYSMKVTGEGCVYLQTSLKYNILPEKEEFPFALGVQTLPQTCDEPKAHTSFQISLSVSYTGSRSASNMAIVDVKMVSGFIPLKPTVKMLERSNHVSRTEVSSNHVLIYLDKVSNQTLSLFFTVLQDVPVRDLKPAIVKVYDYYETDEFAIAEYNAPCSKDLGNADYKDDDDKGASHHHHHH
